One molecule from PMC2888147 (The Biochemical journal, 2010) can be followed below.

Experiment [1] addresses T1, His-tagged KCNQ1 full-length C-terminus (Q1Cf, 349-676) (human, UniProt P51787 349-676).
T1 sequence (looked up): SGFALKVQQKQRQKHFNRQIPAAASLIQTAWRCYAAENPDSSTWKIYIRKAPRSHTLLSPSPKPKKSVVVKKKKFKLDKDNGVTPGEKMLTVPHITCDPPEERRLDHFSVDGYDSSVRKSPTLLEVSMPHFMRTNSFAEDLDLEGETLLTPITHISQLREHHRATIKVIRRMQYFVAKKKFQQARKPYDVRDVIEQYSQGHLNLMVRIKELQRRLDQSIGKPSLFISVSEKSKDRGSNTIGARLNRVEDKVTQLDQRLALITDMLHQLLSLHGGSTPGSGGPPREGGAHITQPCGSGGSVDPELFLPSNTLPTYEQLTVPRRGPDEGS
The experiment is described as follows: SPR. On the technique in general: In SPR one partner is held on a chip, and binding of the other changes the refractive index at the surface.

Experiment [2] addresses T2, His-tagged KCNQ1 C-terminal fragment Q1C1 (349-480) (human, UniProt P51787 349-480).
T2 sequence (looked up): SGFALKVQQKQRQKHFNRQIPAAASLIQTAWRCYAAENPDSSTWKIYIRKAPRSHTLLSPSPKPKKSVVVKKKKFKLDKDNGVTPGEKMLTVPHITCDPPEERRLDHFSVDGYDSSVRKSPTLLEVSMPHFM
Description: SPR.

B1: His-tagged KCNE1 C-terminus (E1C) (domain or fragment)
chain: not shown
What is called Kd is the equilibrium constant for the complex coming apart. On to B1, for which the Kd was found to be 3.2 ± 0.7 µM in experiment [1] and 4.6 ± 1.4 µM in experiment [2].
